Test results reported in the supplement of paper PMC12042874.
± gives the uncertainty stated by the source.

Test: amyloid nucleation score (Sup35N fusion, yeast selection) (log enrichment); library NNK2; higher = more nucleation; inactive = no reads after selection
Method in brief: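 In psi-negative yeast, Sup35N fusions carrying peptides of 20 random codons were induced with 100 μM copper sulfate for 24 hours. The cells then grew 7 days at 30°C on medium lacking adenine and uracil, and plasmid inserts from input and output were Illumina-sequenced, excluding sequences with under 100 input reads. Nucleation score is the DiMSum log enrichment of output over input reads, centred on the mode score of non-aggregating sequences.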
Substance LLYTTCSFGYLMQKFVL has an amyloid nucleation score of 1.58 ± 0.31. For LMAFCKLQDRNKTPLSSALF, the amyloid nucleation score was “inactive”. In the case of LMAHTSFVDFGVKN, the amyloid nucleation score is reported as -0.266 ± 0.23. For LMASCHKQRTCRWHPRDRRY, the amyloid nucleation score was 0.298 ± 0.46. LMCVLTIL gave an amyloid nucleation score of 1.25 ± 0.32. In the case of LMFARTMRSVRRFFYVGFHH, the amyloid nucleation score is reported as “inactive”. LMGIEVDGYYGCRCLTP showed an amyloid nucleation score of 0.236 ± 1.1. LMGIILF gave an amyloid nucleation score of -1.49 ± 0.78. LMIAFKQRFIPS showed an amyloid nucleation score of 1.12 ± 0.4. LMIGSEDAMNYGCSCNPYLF gave an amyloid nucleation score of -1.04 ± 0.33. With LMKSIVGFMNESPLVIEFGR the amyloid nucleation score was -0.402 ± 0.27. LMLFDVKGRICGFDLCLIRR showed an amyloid nucleation score of 0.381 ± 0.62. Work on LMNGVGLFNQMGWVVERYLE yielded an amyloid nucleation score of -0.357 ± 0.4. For LMNLVVG, the amyloid nucleation score was -0.701 ± 0.44. Substance LMQVSA has an amyloid nucleation score of 0.829 ± 0.41. In the case of LMYTFVGCSINVCFGGSGCL, the amyloid nucleation score is reported as 8.873 ± 0.034. Work on LNFIGFK yielded an amyloid nucleation score of 0.102 ± 0.74. LNGLLTIRADVASKSIRLMH showed an amyloid nucleation score of 0.004 ± 0.51. For LNGYNYATCVLSPFFNE, the amyloid nucleation score was -0.497 ± 0.76. Work on LNLGREYVGLKD yielded an amyloid nucleation score of 0.246 ± 0.24. In the case of LNLLADNTLYGDSSYVGYLR, the amyloid nucleation score is reported as 0.021 ± 0.4. Substance LNLLDGWFL has an amyloid nucleation score of -0.7 ± 0.48. For LNMRT, the amyloid nucleation score was -0.443 ± 0.64. For LNMTSFAVKLEANYL, the amyloid nucleation score was -0.565 ± 1.1. LNNHTPDLVWRSSVIGRCQK showed an amyloid nucleation score of 0.47 ± 0.48. In the case of LNNYSSGFRGMIVFFVVVYV, the amyloid nucleation score is reported as -1.06 ± 0.61. In the case of LNQCWRI, the amyloid nucleation score is reported as “inactive”. With LNRVGPLVILPIRHLQSTSL the amyloid nucleation score was 0.65 ± 0.23. For LNSDVVFIVPRYHNWFRSLR, the amyloid nucleation score was “inactive”. For LNSMF, the amyloid nucleation score was 0.056 ± 0.31. LNSQSVFKC showed an amyloid nucleation score of -0.967 ± 0.55. For LNSYRPWCWY, the amyloid nucleation score was “inactive”. Work on LNTKTCVIPSTTCVTIPERE yielded an amyloid nucleation score of 0.242 ± 0.17. With LNTLSESLEKNSGTLCWAKR the amyloid nucleation score was “inactive”. For LNTSFLMV, the amyloid nucleation score was -1.05 ± 0.49. Work on LNVITSVTLRVDWRAVWRKY yielded an amyloid nucleation score of 0.134 ± 0.53. For LPGLIGS, the amyloid nucleation score was 1.96 ± 0.26. Work on LPGMNTIILD yielded an amyloid nucleation score of 2.17 ± 0.081. With LPSVDQTATS the amyloid nucleation score was -0.481 ± 0.35. Work on LPVREALMRKWMVQLLVFVS yielded an amyloid nucleation score of 2.05 ± 0.1. In the case of LPYHCNWHMLSYLTCGYCS, the amyloid nucleation score is reported as 0.711 ± 0.6. With LQAVPIIANCSSTRTANISL the amyloid nucleation score was “inactive”. LQSSKVWDFMLGLGVSGRVE gave an amyloid nucleation score of 1.55 ± 0.14. In the case of LQVLSFSLWFMVRCMKLLPT, the amyloid nucleation score is reported as -0.286 ± 0.65. LQVVKKSNA gave an amyloid nucleation score of 3.61 ± 0.061. LRDIYNFGDSHYFRNYSVTE gave an amyloid nucleation score of -0.132 ± 0.31. For LRDKCAPCKCSRGSPLTSIC, the amyloid nucleation score was -0.489 ± 0.63. In the case of LRDLLLVRTSSCDSYMWLSP, the amyloid nucleation score is reported as -0.254 ± 1. LRFLLPPTMTVGMKFSSDAG gave an amyloid nucleation score of 0.062 ± 0.79. With LRFNDFA the amyloid nucleation score was “inactive”. Work on LRGLCRVHWRSERAQSMRPG yielded an amyloid nucleation score of 0.892 ± 0.45. LRGYRGFPYCDLYFVCMLRN showed an amyloid nucleation score of -1.06 ± 1.1. For LRLDLRMPQRYRLGDTFVSS, the amyloid nucleation score was 0.243 ± 0.24. With LRLIDNYMGSSRMMS the amyloid nucleation score was “inactive”. Substance LRMYCRVTWSISYVSSSPVL has an amyloid nucleation score of 2.83 ± 0.087. With LRNVRMYDLSLWSRGTRCEG the amyloid nucleation score was 0.88 ± 0.28. With LRSCKALGGGVTRPTGYS the amyloid nucleation score was 0.709 ± 0.47. With LRSCRMSDDMK the amyloid nucleation score was 1.18 ± 0.34. LRSDESRYPAFHRESSVRSR gave an amyloid nucleation score of 0.377 ± 0.3. LRTIEASLMGVSNLKKWSFI showed an amyloid nucleation score of -0.299 ± 0.48. LRTVDVAR gave an amyloid nucleation score of -0.654 ± 0.55. In the case of LRVGSRKVRVWSLVSFCLVV, the amyloid nucleation score is reported as -0.271 ± 0.42. Work on LRVRGRFLNSWSASPRSSDY yielded an amyloid nucleation score of 3.58 ± 0.053. With LSCSILRPVWLYISLIVIID the amyloid nucleation score was -1.28 ± 0.48. Work on LSDRRFKDLMSTFRNAATYF yielded an amyloid nucleation score of 6.34 ± 0.047. In the case of LSFKRDELVNLNRFSVQFAQ, the amyloid nucleation score is reported as -0.694 ± 0.38. In the case of LSGKT, the amyloid nucleation score is reported as 0.312 ± 0.54. For LSGWDVHTSSTSVFRNNFIY, the amyloid nucleation score was “inactive”. Substance LSHKSVRAKENPIQSSQCES has an amyloid nucleation score of 1.2 ± 0.33. Substance LSHLISVVRRVRKYSYGEVV has an amyloid nucleation score of 0.389 ± 0.64. Work on LSHSDVKRALKWNCFPIGVC yielded an amyloid nucleation score of -0.158 ± 0.28. In the case of LSIAYFSSAWCFYL, the amyloid nucleation score is reported as 6.216 ± 0.038. With LSIGSQAI the amyloid nucleation score was 0.501 ± 0.38. For LSIRYLVYEPN, the amyloid nucleation score was 0.27 ± 0.36. LSKGTPSQSMMSSLLSINTL gave an amyloid nucleation score of -0.159 ± 1. LSKLYTLVRNV showed an amyloid nucleation score of -0.576 ± 0.63. LSLFHPCLL gave an amyloid nucleation score of -0.182 ± 0.3. With LSLLRFLNCMRYCLCIGLAS the amyloid nucleation score was 4.14 ± 0.093. Work on LSMDRESFINERWSSQRVMV yielded an amyloid nucleation score of -0.02 ± 0.5. LSMQKCSLIIISRCGRSRNM gave an amyloid nucleation score of 3.77 ± 0.057. With LSNLWSSSF the amyloid nucleation score was “inactive”. LSRLN showed an amyloid nucleation score of -0.055 ± 0.53. With LSRNTYWYGVEIGLVLSSCT the amyloid nucleation score was 0.161 ± 0.24. In the case of LSRQGRLESVKDGRSMWVSG, the amyloid nucleation score is reported as -0.283 ± 1.1. For LSRRAINHFYNIITEVAGRG, the amyloid nucleation score was “inactive”. In the case of LSSGIMSGCEGGAWCCH, the amyloid nucleation score is reported as 0.605 ± 0.66. In the case of LSSPDVPNIHAALRTRTGWA, the amyloid nucleation score is reported as -0.328 ± 0.27. LSSPLNLQHVFPLTWMYLC gave an amyloid nucleation score of -0.742 ± 1.1. LSSVMN gave an amyloid nucleation score of -0.565 ± 0.33. LSVCGSWDRRRFGGYDLWCT gave an amyloid nucleation score of 0.903 ± 0.48. Substance LSVCVRHEDGGSIAVECGS has an amyloid nucleation score of 0.242 ± 0.77. Substance LSWITPIKIGISFSLALIFT has an amyloid nucleation score of -0.974 ± 0.49. With LSWRFFLSCWN the amyloid nucleation score was “inactive”. With LSWYLTYTRLTSLVG the amyloid nucleation score was -0.097 ± 0.42. LSYRTCYRNMP showed an amyloid nucleation score of 0.328 ± 0.46. Substance LTACEQSWLKILLLMEMQTL has an amyloid nucleation score of -0.137 ± 0.54. With LTFVCVV the amyloid nucleation score was 0.048 ± 0.33. Substance LTIPEMNQGLQLSLSIHAQM has an amyloid nucleation score of -0.902 ± 0.63. LTIYRSHDVRM gave an amyloid nucleation score of 3.88 ± 0.043. Substance LTKVWLPCAFVVSSFDQYQH has an amyloid nucleation score of 0.764 ± 0.41. LTLYSGVRCFSSYLP showed an amyloid nucleation score of 0.012 ± 0.41. In the case of LTMQKWLF, the amyloid nucleation score is reported as 0.28 ± 0.62. LTSHLYIYGMW showed an amyloid nucleation score of -0.766 ± 0.48. With LTSNTNSRMLRCSIMVQQS the amyloid nucleation score was -0.087 ± 0.45. Work on LTSSRRF yielded an amyloid nucleation score of 5.724 ± 0.037. LTVLFVLTVCFNVAMGCCLS showed an amyloid nucleation score of -0.223 ± 0.76. With LTWICEFGRSFFSWICVMIG the amyloid nucleation score was 0.856 ± 0.14. LVCGHRPNVAAGTQGDCGRW showed an amyloid nucleation score of 1.04 ± 0.32. Work on LVCSKSAGEWAYSRFGVLDL yielded an amyloid nucleation score of -0.444 ± 0.44. With LVDILLMMYWMWQ the amyloid nucleation score was 0.373 ± 0.45. In the case of LVFGVLQVCVLCSVTDNLGA, the amyloid nucleation score is reported as 0.159 ± 0.35. LVFRMQHSLTHGLLSEPGNR showed an amyloid nucleation score of 2.28 ± 0.17. Work on LVGKFNWCEVQKKCSRFRCR yielded an amyloid nucleation score of -0.29 ± 0.62. In the case of LVGLISRNKVVRTGIENNKD, the amyloid nucleation score is reported as -0.059 ± 0.55. In the case of LVHFVVSALKT, the amyloid nucleation score is reported as “inactive”. LVHMLCQ gave an amyloid nucleation score of 0.893 ± 0.24. Substance LVILAGTVRIVRHGLVALQL has an amyloid nucleation score of 0.592 ± 0.22. In the case of LVKCHANGCFPYLSTIFIRP, the amyloid nucleation score is reported as 0.156 ± 0.41. Work on LVKMTLGCATSMLRCLMLSV yielded an amyloid nucleation score of 0.457 ± 0.24. In the case of LVLIIK, the amyloid nucleation score is reported as 5.96 ± 0.075. Work on LVMWNRCSIKRVNREMVHSF yielded an amyloid nucleation score of 0.538 ± 0.3. Work on LVNNGINPPFGPSSLSRGMK yielded an amyloid nucleation score of -0.31 ± 0.4. In the case of LVQLMMMFWKRGLRDSANMV, the amyloid nucleation score is reported as -1.13 ± 0.78. Substance LVREWHRKNSSGPRIVVRRQ has an amyloid nucleation score of 4.18 ± 0.079. In the case of LVRPILLYYSMLV, the amyloid nucleation score is reported as “inactive”. Work on LVSFKGKVLFFIS yielded an amyloid nucleation score of 1.86 ± 0.13. For LVSLVQRYLDHRPDNKM, the amyloid nucleation score was -0.05 ± 0.48. In the case of LVSVVWTKCRRGQRGVLVAS, the amyloid nucleation score is reported as 1.06 ± 0.38.
